US6093692A, “Method and compositions for lipidization of hydrophilic molecules” (The University of Southern California, priority 1997, dated 2000)

Key:
Caco-2 cells = format: cell-based, Human
Experimental: Human colon carcinoma cells (Caco-2) were detached from 25 cm^2 stock culture flasks using a 10 min incubation at 37° C. with 0.5 ml of a trypsin/EDTA solution (0.5% trypsin, 5.3 mM EDTA). The cells were then suspended in 5 ml of Dulbecco's minimum essential medium, supplemented with 15% fetal bovine serum (FBS), L-glutamine (1%), and essential amino acids (1%), and counted using a coulter counter.
Radioiodination of BBI and BBIssPal was carried out using the chloramine-T method [McConahey, P. C. and Dixon, F. J., Meth. Enzymol., 70:221-247 (1980)]. Confluent, 14-day old cell monolayers were washed once with, and then incubated in, serum-free Dulbecco medium at 37° C. for 30 min. Subsequently, the incubation medium was replaced with serum free medium containing ^125 I-BBI (10 μg/ml), either as native-BBI or as BBIssPal or BBIssOleic, and the monolayers were incubated for a further 60 min at 37° C. The monolayers were then washed three times with ice-cold PBS, and then exposed to trypsin (0.5%, EDTA 5.3 mM) for 10 min at 37° C. The detached cells were transferred to tubes, isolated by centrifugation, washed three times using ice-cold PBS, assayed for accumulated radioactivity using a gamma counter, and finally assayed for cell protein using the published method [Lowry, O. H., et al., J. Biol. Chem., 193:265-275 (1951)].
In some experiments the uptake of reduced ^125 I-BBIssPal into cells was determined. ^125 I-BBIssPal was reduced with DTT (50 mM) at 60° C. for 5 min followed by a further 25 min at 37° C. In control experiments, ^125 I-BBIssPal was exposed in medium to the same temperatures without being exposed to DTT.
The uptake of ^125 I-BBIssPal in the presence of BSA (fatty acid free) was determined as follows. ^125 I-BBIssPal was incubated with medium containing 0.1% BSA for 30 min at 37° C. before being added to the cell monolayers. In some uptake experiments, BSA was first mixed with a 3-fold molar excess of palmitic acid, and then incubated with the conjugates prior to the experiments. In the experiments where the uptake of ^125 I-BBIssPal was determined in medium containing FBS, the conjugates was simply added to the medium containing the required amount of FBS.
The cell monolayers were incubated with ^125 I-labeled conjugates at 10 μg/ml for 60 min at 37° C. The results presented are the average of three monolayers ±SEM. The uptake experiments were carried out in Dulbecco medium, in the presence and absence of added FBS.
The cell uptake of ^125 I-BBI, either as the native protein or as BBIssPal was determined before and after reduction with DTT (50 mM) for 5 min at 60° C. and 25 min at 37° C.
The uptake experiments were carried out in Dulbecco medium, in the presence and absence of added fatty acid-free BSA (BSA) or fatty acid-loaded BSA (BSA/FA). The results of studies of the uptake of ^125 I-BBI, either as the native-BBI or in conjugated form to palmitic or oleic acid, in Caco-2 cells in the presence of serum-free medium are presented in FIG. 1. The results are shown as the average ng of BBI internalized ±SEM, n=3. The uptake of ^125 I-BBIssPal into the cells was approximately 100-fold higher than that of ^125 I-BBI. […] The difference between the uptake of ^125 I-BBIssPal and ^125 I-BBIssOleic were significant.

[1] = format: in vitro ADME, hairless mice
Experimental: Freshly-prepared skins from hairless mice were mounted on small rings. To each mounted skin, a 5 μl sample of ^125 I-labeled BBI or BBIssPal at a concentration of 0.5 mg/ml was applied to an area of 0.38 cm^2. Two pieces of skin were used per treatment. The skins were kept at room temperature (23° C.) in a humidified environment. After 30 minutes, the surface of the skins was first rinsed carefully with PBS; subsequently, the skins were unmounted and soaked twice in 100 ml of PBS. The skins were then blotted with filter papers and counted in a gamma counter. The amount of BBI retained on the skins was calculated using the specific radioactivity of the labeled BBI or BBIssPal. The absorption of BBI and BBIssPal into the mouse skins was 0.14 and 1.6 μg/cm^2, respectively.

B1: BBIssPal: the palmityl disulfide conjugate of BBI (conjugate, UniProt P01055 40-110, looked up)
Bowman-Birk type proteinase …: DDESSKPCCDQCACTKSNPPQCRCSDMRLNSCHSACKSCICALSYPAQCFCVDITDFCYEPCKPSEDDKEN
modifications: palmityl disulfide; 125I
notes: the palmityl disulfide conjugate of BBI
Caco-2 cells
  Internalization, fold over that of BBI: 35 fold
  Reduction of uptake after reduction with DTT: approximately 80%
  Reduction of uptake by defatted-BSA: 82%
  Uptake, fold higher than native-BBI: 10 fold
[1]
  Increase of BBI absorption into the skin: more than 10 fold
